Reference: patent US20190177414A1 (AKESO BIOPHARMA, published 2019)

Target: T1, CTLA4 antigen (CTLA4 protein obtained by cleaving the CTLA4-mFc fusion protein with TEV protease) (human, UniProt P16410 36-161)
T1 construct: extracellular domain; after cleavage part of the TEV site may remain at the C-terminus; also called CTLA4ECD
T1 sequence (looked up): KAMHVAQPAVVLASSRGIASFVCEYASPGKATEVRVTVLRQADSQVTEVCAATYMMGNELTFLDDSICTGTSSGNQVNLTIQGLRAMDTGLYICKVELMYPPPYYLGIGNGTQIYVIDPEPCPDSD
Experiment: Octet (ForteBio) BLI; antibody amine-coupled to AR2G sensor, CTLA4 antigen in solution
Method: The dynamic parameters of the antigen—antibody binding were determined using the ForteBio molecular interaction analyzer (Octet). The CTLA4-mFc fusion protein prepared in Example 1 was cleaved using the TEV protease, and the CTLA4 antigen was obtained by purification on a column. […] After equilibration in PBST, the CTLA4 antigen was added for binding. […] Dissociation occurred in PBST.

B1: anti-CTLA4 antibody 4G10 (antibody, V domains shown)
VH: QVKLQESGPELVKPGASMKISCKASGYSFTGYTMNWVKQSHGKNLEWIGLINPYNNITNYNQKFMGKATFTVDKSSSTAYMELLRLTSEDSGVYFCARLDYRSYWGQGTLVTVSA
VL: QAVVTQESALTTSPGETVTLTCRSSTGAVTTSNFANWVQEKPDHLFTSLIGGTNNRAPGVPARFSGSLIGDKAALTITGAQTEDEAIYFCALWYSNHWVFGGGTKLTVLG
notes: Mouse monoclonal antibody purified from hybridoma supernatant; also called monoclonal antibody secreted by hybridoma cell line LT002 (CTLA4-4G10)
For B1, the Kd was 0.301 nM, the koff was 0.000114 s⁻¹ and the kon was 378000 M⁻¹ s⁻¹.
